According to publication PMC12362812:

Target: NUP93 (nucleoporin 93) (UniProt Q8N1F7)
Experiment: co-immunoprecipitation, Western blot
Conditions: reference: wild-type β-catenin; sites S191

“β‐catenin (from UniProt P35222) β-catenin S191 mutant (S191A)” was tested, and the “binding against the reference” value was “weaker”.
